Results from patent publication US20170247465A1, “COMBINATION THERAPY FOR TREATMENT OF CANCER” (OncoMed Pharmaceuticals, Inc., priority 2014, published 2017).

Key:
Assay type in all cases: in vivo, NOD/SCID mice
[1] = system: cancer stem cells in OMP-LU77 lung tumors; experiment: Limiting dilution assay, cancer stem cell frequency in OMP-LU77 lung tumors (Example 7); details: tumors from mice treated with vantictumab administered prior to paclitaxel; 50, 150, 500 cells implanted, 79 days; FIG. 5B
Excerpt: FIGS. 5A-5B. Cancer Stem Cell frequency. FIG. 5A. Tumor growth in mice following implantation of 50, 150, or 500 OMP-LU77 tumor cells obtained from mice that had been treated with either control antibody (Control mAb), paclitaxel (Pac), or the combination of OMP-18R5 and paclitaxel (Van+Pac). FIG. 5B. Cancer stem cell (CSC) frequency in OMP-LU77 lung tumors following treatment with control antibody (Control mAb), paclitaxel, or a combination of OMP-18R5 antibody and paclitaxel (Van+Pac) as determined by limiting dilution analysis.
Limiting dilution assays (LDAs) can be used to assess the effect of Wnt pathway inhibitors on solid tumor cancer stem cells and/or on the tumorigenicity of a tumor. The assays can be used to determine the frequency of cancer stem cells in tumors from animals treated with the Wnt pathway inhibitor and to compare that frequency to the frequency of cancer stem cells in tumors from control animals. […]
For the LDA, the tumor cells in the suspension were harvested, counted, and appropriate cell doses (50, 150, and 500 cells) were injected subcutaneously in NOD/SCID mice (10 mice per cell dose per treatment group). […] The percentage of mice with detectable tumors was determined in all treatment groups and compared to the percentage of mice with detectable tumors in the controls. […]

[2] = system: OMP-LU77 lung tumor cells; experiment: OMP-LU77 lung tumor xenograft, staggered dosing of vantictumab and paclitaxel (Example 6); details: vantictumab 25 mg/kg administered two days prior to paclitaxel 15 mg/kg, every other week; versus same day, paclitaxel alone; FIG. 4
Experimental: FIG. 4. Inhibition of lung tumor growth in vivo by a Wnt pathway inhibitor in combination with a taxane using a staggered dosing schedule. OMP-LU77 lung tumor cells were injected subcutaneously into NOD/SCID mice. […] Vantictumab was administered at 25 mg/kg and paclitaxel at 15 mg/kg. Agents were administered every other week and administered intraperitoneally. Data is shown as tumor volume (mm^3) over days post treatment.
OMP-LU77 is a patient-derived non-small cell lung (NSCLC) tumor. Single cell suspensions of xenograft OMP-LU77 lung tumor cells (50,000 cells) were injected subcutaneously into NOD/SCID mice. Tumors were allowed to grow 37 days until they had reached an average volume of approximately 200 mm^3. Tumor-bearing mice were randomized into 4 groups (n=8-9 per group). […] Antibodies were dosed at 25 mg/kg, administered every other week. Paclitaxel was dosed at 15 mg/kg, also every other week. Tumor growth was monitored and tumor volumes were measured on the indicated days post-treatment. Data are expressed as mean±SEM.

[3] = system: OMP-C28 colon tumor cells; experiment: OMP-C28 colon tumor xenograft, staggered dosing of Wnt inhibitors and nab-paclitaxel (Example 10); details: Wnt pathway inhibitor 25 mg/kg every two weeks, administered 2 days prior to nab-paclitaxel 15 mg/kg once a week, i.p.; versus single agents; FIG. 8
Experimental: FIG. 8A-8B. Inhibition of colon tumor growth in vivo by a Wnt pathway inhibitor in combination with a taxane using a staggered dosing schedule. FIG. 8A. OMP-C28 colon tumor cells were injected subcutaneously into NOD/SCID mice. Mice were treated with control antibody (-•-), OMP-18R5 (-▴-), nab-paclitaxel (-▪-), or a combination of OMP-18R5 and nab-paclitaxel, where OMP-18R5 was administered 2 days prior to administration of nab-paclitaxel (-⋄-). FIG. 8B. OMP-C28 colon tumor cells were injected subcutaneously into NOD/SCID mice. Mice were treated with control antibody (-•-), OMP-54F28 (-▴-), nab-paclitaxel (-▪-), or a combination of OMP-54F28 and nab-paclitaxel, where OMP-54F28 was administered 2 days prior to administration of nab-paclitaxel (-⋄-). OMP-18R5, OMP-54F28 and control were administered at 25 mg/kg and nab-paclitaxel was administered at 15 mg/kg. OMP-18R5, OMP-54F28 and control were administered once every two weeks, paclitaxel was administered once a week, and all agents were administered intraperitoneally. Data is shown as tumor volume (mm^3) over days post treatment.
Single cell suspensions of xenograft OMP-C28 colon tumor cells were injected subcutaneously into 6-8 week old NOD/SCID mice. […] Tumor growth was monitored and tumor volumes were measured with electronic calipers at the indicated time points. Data are expressed as mean±S.E.M.

[4] = system: UM-PE13 breast tumor cells; experiment: UM-PE13 breast tumor xenograft, staggered dosing of OMP-18R5 and paclitaxel (Example 2)
Experimental: FIG. 2. Inhibition of breast tumor growth in vivo by a Wnt pathway inhibitor in combination with a taxane using a staggered dosing schedule. UM-PE13 breast tumor cells were injected subcutaneously into NOD/SCID mice. […] OMP-18R5 was administered at 25 mg/kg and paclitaxel at 20 mg/kg. Agents were administered every three weeks and administered intraperitoneally. Data is shown as tumor volume (mm^3) over days post treatment.
Single cell suspensions of xenograft UM-PE13 breast tumor cells (20,000 cells) were injected subcutaneously into 6-8 week old NOD/SCID mice. UM-PE13 is a triple negative breast cancer. Tumors were allowed to grow 34 days until they reached an average volume of 80 mm^3. The mice were randomized (n=8 per group) and treated with paclitaxel, a combination of OMP-18R5 and paclitaxel administered on the same day, a combination of OMP-18R5 and paclitaxel where the paclitaxel was administered 3 days prior to OMP-18R5, a combination of OMP-18R5 and paclitaxel where OMP-18R5 was administered 3 days prior to the paclitaxel, or a control antibody. Mice were treated once every three weeks with OMP-18R5 at a dose of 25 mg/kg and paclitaxel at a dose of 20 mg/kg. OMP-18R5 and paclitaxel were administered intraperitoneally. Tumor growth was monitored and tumor volumes were measured with electronic calipers at the indicated time points. Data are expressed as mean±S.E.M.

B1: OMP-18R5: anti-FZD antibody, IgG2, also known as vantictumab; heavy chain SEQ ID NO:3, light chain SEQ ID NO:4 (antibody)
heavy: EVQLVESGGGLVQPGGSLRLSCAASGFTFSHYTLSWVRQAPGKGLEWVSVISGDGSYTYYADSVKGRFTISSDNSKNTLYLQMNSLRAEDTAVYYCARNFIKYVFANWGQGTLVTVSSASTKGPSVFPLAPCSRSTSESTAALGCLVKDYFPEPVTVSWNSGALTSGVHTFPAVLQSSGLYSLSSVVTVPSSNFGTQTYTCNVDHKPSNTKVDKTVERKCCVECPPCPAPPVAGPSVFLFPPKPKDTLMISRTPEVTCVVVDVSHEDPEVQFNWYVDGVEVHNAKTKPREEQFNSTFRVVSVLTVVHQDWLNGKEYKCKVSNKGLPAPIEKTISKTKGQPREPQVYTLPPSREEMTKNQVSLTCLVKGFYPSDIAVEWESNGQPENNYKTTPPMLDSDGSFFLYSKLTVDKSRWQQGNVFSCSVMHEALHNHYTQKSLSLSPGK
light: DIELTQPPSVSVAPGQTARISCSGDNIGSFYVHWYQQKPGQAPVLVIYDKSNRPSGIPERFSGSNSGNTATLTISGTQAEDEADYYCQSYANTLSLVFGGGTKLTVLGQPKAAPSVTLFPPSSEELQANKATLVCLISDFYPGAVTVAWKADSSPVKAGVETTTPSKQSNNKYAASSYLSLTPEQWKSHRSYSCQVTHEGSTVEKTVAPTECS
cancer stem cell frequency (limiting dilution analysis, L-Calc) [1]: significantly decreased the cancer stem frequency
inhibition of tumor growth (tumor volume) [2]: significantly better at inhibiting tumor growth of the OMP-LU77 lung tumor cells than any of the other dosing regimens
inhibition of tumor growth (tumor volume) [3]: inhibited tumor growth of the OMP-C28 colon tumor cells to a greater extent than either the Wnt pathway inhibitors or nab-paclitaxel alone
inhibition of tumor growth (tumor volume) ([4]; OMP-18R5 25 mg/kg administered 3 days prior to paclitaxel 20 mg/kg, every three weeks i.p., versus same day, paclitaxel first, paclitaxel alone, FIG. 2): significantly better at inhibiting tumor growth of the UM-PE13 breast tumor cells than any of the other dosing regimens
tumor regression in individual mice ([4]; Wnt pathway inhibitor (OMP-18R5) administered before the taxane (paclitaxel)): tumors in several of the individual mice regressed to undetectable levels
